Results as given in patent US20210347848A1 (ALX ONCOLOGY, published 2021).
Residue numbers refer to the chain shown, from its start.

T1: mouse CD47 (mouse, UniProt Q61735 19-140, limits assumed)
T1 construct: Soluble analyte in SPR; construct not described
T1 sequence (looked up): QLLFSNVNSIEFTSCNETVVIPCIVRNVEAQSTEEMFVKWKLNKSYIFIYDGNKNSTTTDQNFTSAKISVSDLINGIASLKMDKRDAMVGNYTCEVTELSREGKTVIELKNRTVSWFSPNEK

B1: Decoy polypeptide Q (Fc fusion)
chain: EEELQIIQPDKSISVAAGESATLHCTITSLFPVGPIQWFRGAGPGRVLIYNQRQGPFPRVTTVSDTTKRNNMDFSIRISNITPADAGTYYCIKFRKGSPDDVEFKSGAGTELSVRAKPSDKTHTCPPCPAPEAAGAPSVFLFPPKPKDTLMISRTPEVTCVVVDVSHEDPEVKFNWYVDGVEVHNAKTKPREEQYASTYRVVSVLTVLHQDWLNGKEYKCKVSNKALPAPIEKTISKAKGQPREPQVYTLPPSREEMTKNQVSLTCLVKGFYPSDIAVEWESNGQPENNYKTTPPVLDSDGSFFLYSKLTVDKSRWQQGNVFSCSVMHEALHNHYTQKSLSLSPG
B2: Decoy polypeptide P (Fc fusion)
chain: B1 chain with E2D, D10E, I13V, H24R, T26A, P44A, D65E, M72L, R77S
B3: Decoy polypeptide R (Fc fusion)
chain: EEELQMIQPEKLLLVTVGKTATLHCTVTSLLPVGPVLWFRGVGPGRELIYNQKEGHFPRVTTVSDLTKRNNMDFSIRISSITPADVGTYYCVKFRKGSPENVEFKSGPGTEMALGAKPSDKTHTCPPCPAPEAAGAPSVFLFPPKPKDTLMISRTPEVTCVVVDVSHEDPEVKFNWYVDGVEVHNAKTKPREEQYASTYRVVSVLTVLHQDWLNGKEYKCKVSNKALPAPIEKTISKAKGQPREPQVYTLPPSREEMTKNQVSLTCLVKGFYPSDIAVEWESNGQPENNYKTTPPVLDSDGSFFLYSKLTVDKSRWQQGNVFSCSVMHEALHNHYTQKSLSLSPG
notes: also called wild type SIRPγ
B4: Decoy polypeptide D (Fc fusion)
chain: B3 chain with M6I, V27I, L31F, V36I, L37Q, E47V, E54D, L66G, N101D
B5: Decoy polypeptide B (Fc fusion)
chain: EEELQIIQPEKLLLVTVGKTATLHCTITSLFPVGPIQWFRGVGPGRVLIYNQRDGPFPRVTTVSDGTKRNNMDFSIRISSITPADVGTYYCVKFRKGTPEDVEFKSGPGTEMALGAKPSDKTHTCPPCPAPEAAGAPSVFLFPPKPKDTLMISRTPEVTCVVVDVSHEDPEVKFNWYVDGVEVHNAKTKPREEQYASTYRVVSVLTVLHQDWLNGKEYKCKVSNKALPAPIEKTISKAKGQPREPQVYTLPPSREEMTKNQVSLTCLVKGFYPSDIAVEWESNGQPENNYKTTPPVLDSDGSFFLYSKLTVDKSRWQQGNVFSCSVMHEALHNHYTQKSLSLSPG
B6: Decoy polypeptide L (Fc fusion)
chain: B5 chain with I6L, V33P, R53K, T98I
B7: Decoy polypeptide H (Fc fusion)
chain: B5 chain with V47E, Q52A, D54E, P56R, G66L, T98S
B8: Decoy polypeptide G (Fc fusion)
chain: B5 chain with I36V, Q37L, D54Q, G66T
B9: Decoy polypeptide C (Fc fusion)
chain: B5 chain with R53K, T98S
B10: Decoy polypeptide F (Fc fusion)
chain: B5 chain with L30H, R53K, P56H, T98S
B11: Decoy polypeptide A (Fc fusion)
chain: B5 chain with I36V, Q37L, D54Q, G66T, V92I, T98S, D101N
notes: expressed in Expi293 cells
B12: Decoy polypeptide J (Fc fusion)
chain: B5 chain with F31L, V47E
B13: Decoy polypeptide E (Fc fusion)
chain: B5 chain with V42A, V92I
B14: Decoy polypeptide N (Fc fusion)
chain: B5 chain with I6M, V42A, V92I, T98I
B15: Decoy polypeptide I (Fc fusion)
chain: B5 chain with D54E, T98S
B16: Decoy polypeptide M (Fc fusion)
chain: B5 chain with V33I, Q37L, R53K, T98S
B17: Decoy polypeptide K (Fc fusion)
chain: B5 chain with I27L, F31L, Q37L, T98N
B18: Decoy polypeptide U (Fc fusion)
chain: B1 chain with I13V, S14L, S20T, H24R, V47E, Q54E, S79G, N80A, I92V
notes: positive control
B19: Decoy polypeptide T (Fc fusion)
chain: B1 chain with I6V, I27V, F31I, V47E, R53K, Q54E, P56H, T66L, I92V, D101H
notes: also called wild type SIRPβ2
B20: Decoy polypeptide S (Fc fusion)
chain: EDELQVIQPEKSVSVAAGESATLRCAMTSLIPVGPIMWFRGAGAGRELIYNQKEGHFPRVTTVSELTKRNNLDFSISISNITPADAGTYYCVKFRKGSPDDVEFKSGAGTELSVRAKPSDKTHTCPPCPAPEAAGAPSVFLFPPKPKDTLMISRTPEVTCVVVDVSHEDPEVKFNWYVDGVEVHNAKTKPREEQYASTYRVVSVLTVLHQDWLNGKEYKCKVSNKALPAPIEKTISKAKGQPREPQVYTLPPSREEMTKNQVSLTCLVKGFYPSDIAVEWESNGQPENNYKTTPPVLDSDGSFFLYSKLTVDKSRWQQGNVFSCSVMHEALHNHYTQKSLSLSPG
notes: also called wild type SIRPβ1

molecular target: T2, human CD47 (human, UniProt Q08722 19-135); test: SPR, decoy captured on biotinylated Protein A, CD47 as analyte, 25 C
T2 construct: Soluble analyte in SPR; also called hCD47
Experimental: (§1) The binding affinities each decoy polypeptides for CD47 from various species (e.g., human CD47, cynomolgus monkey CD47, and mouse CD47) were determined using indirect capture via biotinylated Protein A (via NLC chip). All experiments were performed at 25° C. using a Surface Plasmon Resonance (SPR)-based ProteOn XPR36 biosensor (BioRad, Inc., Hercules, Calif.). The running buffer was PBS at pH 7.4 with 0.01% Tween-20 (PBST+). All analytes were used at their nominal concentrations as determined by A₂₈₀ absorbance and using their molar calculated extinction coefficients.
(§2) As a first step, 15 μg/mL biotinylated protein A (Thermofisher) was injected at 30 μL/min for 120 seconds over the NLC chip to obtain an immobilization response of about 1000-1200 RUs. Next, decoy polypeptides (about 100-160 nM) were injected for 80 seconds at 30 μL/min. The CD47 analytes (from human, cynomolgus monkey, and mouse) were subsequently injected in a “one-shot” kinetic mode at nominal concentrations of 100 nM, 33 nM, 11 nM, 3.7 nM, 1.2 nM, and 0 nM. Association times were monitored for 60 seconds at 25 μL/min, and dissociation times were monitored for 500 seconds. The surfaces were regenerated with a 2:1 v/v blend of Pierce IgG elution buffer/4M NaCl. Biosensor data were double-referenced by subtracting the interspot data (containing no immobilized protein) from the reaction spot data (immobilized protein) and then subtracting the response of a buffer “blank” analyte injection from that of an analyte injection. Double-referenced data were fit globally to a simple Langmuir model and the KD value was calculated from the ratio of the apparent kinetic rate constants (KD=kd/kₐ).

T2 sequence (Q08722 other isoform, or with tags, fused parts or gaps limits assumed): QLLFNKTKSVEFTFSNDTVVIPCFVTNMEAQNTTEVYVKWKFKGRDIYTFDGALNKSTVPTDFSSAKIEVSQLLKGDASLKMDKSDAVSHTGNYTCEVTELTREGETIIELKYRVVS

| Kd [nM] | Binder |
| --- | --- |
| 0.213 | B1 |
| 0.35 | B2 |
| 2190 | B3 |
| 1.8 | B4 |
| 0.32 | B5 |
| 4.02 | B6 |
| 0.483 | B7 |
| 1.56 | B8 |
| 0.243 | B9 |
| 0.881 | B10 |
| 74.8 | B11 |
| 0.275 | B12 |

molecular target: T2, human CD47; test: SPR, decoy captured on biotinylated Protein A (NLC chip), CD47 as analyte
Experimental: as §1, §2

| Binder | binding result |
| --- | --- |
| B13 | no binding (tested: CD47 analyte up to 100 nM) |
| B14 | no binding (tested: CD47 analyte up to 100 nM) |
| B15 | no binding (tested: CD47 analyte up to 100 nM) |
| B16 | no binding (tested: CD47 analyte up to 100 nM) |
| B17 | no binding (tested: CD47 analyte up to 100 nM) |

molecular target: T2, human CD47; test: SPR; the reference itself (wild type SIRPγ D1 domain)

| Fold improvement in KD vs wild type [fold] | Binder |
| --- | --- |
| 1 | B3 |

molecular target: T2, human CD47; test: SPR; ratio against decoy polypeptide R (wild type SIRPγ D1 domain)
Experimental: as §1, §2

| Fold improvement in KD vs wild type [fold] | Binder |
| --- | --- |
| 1220 | B4 |
| 6840 | B5 |
| 545 | B6 |
| 4530 | B7 |
| 1400 | B8 |
| 9010 | B9 |
| 2490 | B10 |
| 7960 | B12 |

molecular target: T3, cynomolgus monkey CD47 (cynomolgus monkey, UniProt A0A2K5X523 19-135); test: SPR, decoy captured on biotinylated Protein A, CD47 as analyte, 25 C
T3 construct: Soluble analyte in SPR; construct not described; also called Cyno CD47
Experimental: as §1, §2

| Kd [nM] | Binder |
| --- | --- |
| 0.106 | B1 |
| 0.224 | B18 |
| 0.334 | B2 |
| 0.274 | B9 |
| 0.33 | B12 |

molecular target: T1, mouse CD47; test: as above
Experimental: as §1, §2

| Kd [nM] | Binder |
| --- | --- |
| 24.1 | B1 |
| 7.82 | B18 |
| 146 | B2 |
| 0.905 | B9 |
| 1.3 | B12 |

molecular target: T2, human CD47; test: as above; remark: another data set of the same source
Experimental: as §1, §2

| Kd [nM] | Binder |
| --- | --- |
| 0.0785 | B1 |
| 0.193 | B18 |
| 0.288 | B2 |
| 2190 | B3 |
| 0.243 | B9 |
| 0.398 | B12 |

molecular target: T3, cynomolgus monkey CD47; test: SPR, decoy captured on biotinylated Protein A (NLC chip), CD47 as analyte

| Binder | binding result |
| --- | --- |
| B19 | no binding (tested: CD47 analyte up to 100 nM) |
| B3 | no binding (tested: CD47 analyte up to 100 nM) |
| B20 | no binding (tested: CD47 analyte up to 100 nM) |

molecular target: T1, mouse CD47; test: as above

| Binder | binding result |
| --- | --- |
| B19 | no binding (tested: CD47 analyte up to 100 nM) |
| B3 | no binding (tested: CD47 analyte up to 100 nM) |
| B20 | no binding (tested: CD47 analyte up to 100 nM) |

molecular target: T2, human CD47; test: as above; remark: another data set of the same source

| Binder | binding result |
| --- | --- |
| B19 | no binding (tested: CD47 analyte up to 100 nM) |
| B20 | no binding (tested: CD47 analyte up to 100 nM) |
